Reference: the DeepSol protein solubility set

Experiment: soluble on expression in E. coli; label from the status in PepcDB or PDB records

Sequence | soluble on expression in E. coli
MKIAVVTESSANLKAQAVKDYQITVVNDPIMFGNHVYHENVDITTDQFYRLLKVEKEIPTISQISMPEMQVVFDQLQAAGYDQILVIGLSSGISGWINNLKTYAPSVDGIDVRVFDSRTACAGTANMVKLAAAMALADYTLDEIIAQLTRLRAATTTVLIVNSMRHLVKNGRIYNNSSLAGTMVLRNKPIITFNGHGKIQLLGKERTLKNAQQAVQDEFSQFVMNSQLPVRLDVISANDARIAEDWASELRYQFPAVRVKTGVIGPVLGVLTGDHALGMIWSLDWKPLLTTLNQEQKQ | not soluble
MKICTMGLGYIGLPTSAMFAKYGTEVVGVDIHQKVVDKLNNGEIHIEEPGLGEVVKEVVANGKFRASLTPEEADAFIISVPTPNHDDEHKSCDLSYVLTATEKVLPFVKKGNVIIVESTIAPRSMDDYVKPLVEEAGFTVGEDIYLVHCPERVLPGQILHELVHNNRIVGGVTPACAEAGARVYGVFVEGEIIKTNAKTAEMSKLMENTFRDVNIALANELTKVCNSLDINVLDVIEMANKHPRVNLHYPGPGVGGHCLAVDPYFIVAKAPELANIIKLSRETNVSMPHYVTEKVKELLAGVENPKVAAFGVTYKGNVDDMRESPAMDVIDLIRNEGITVSAHDPHVESDFFELHSAEEAVKDAHLILVLTDHDEFKTMNYDSLAPYMAKTVVFDTRNCVQAVSTGEMKIINFGTLYEALNKNVMMV | not soluble
MKIGIGSDHGGYNLKREIADFLKKRGYEVIDFGTHGNESVDYPDFGLKVAEAVKSGECDRGIVICGTGLGISIAANKVPGIRAAVCTNSYMARMSREHNDANILALGERVVGLDLALDIVDTWLKAEFQGGRHATRVGKIGEIEKKYSK | soluble
MKIKIFIITSLIILTSVSCRRNVFNPSIPNRTQFVEDPIANLSIPSKDAAVEVIPVESIYKTGQTSLIYNWYIHFFDFNGKYYLTARDKCSYDSANKTMIITNNSYYNLLEIDVNDNFYMKEIRTNIDSSIPDDNRIINAFTKIVNGEAYTNADTIFIQDGGKYYSSKNIITWTEISQIPSDASKKEATDQYKIPITAQNGKTYTYVYASGAREFSISRLSDRMKQLAKRLETKFDFKEEDFNNHHMFDIGLNENGSSNPDFRLNPTNYLNNDTNYVYMGATDAAGQLWLLPVKKNGKDYLVRLPEHGGPELYIISDLQNDMNTYQTKAQESLTKALSLAASGGDTSAIEDACYESILNDANYKANKYFLDVIDKMGAKVNFGTTVYATSSKPITHYVIDIVDIQKD | not soluble
MKILAFETSTEACSVALHVDGAVRERFELAPRRHAELALPWAEQLLAEAGISRRQLDAIAVGRGPGAFSGVRLAIGIVQGIALALDLPVLAISTLQVLALRAPAEASHVLACIDARMGEVYAGLFERQGEALLTLGSEVVCAPEAVLLPQSTPQWAGVGTGLAAGEMPLQQRFAGRLSSVDAAALPHAADLLTLALPAALRGEGVAPERVEPAYLRDNVALTLVEQQAARAAKAAAVPR | soluble
MKILAISDPHGDYSKMKQIIEKAGDFDLAVVVGDITNFGPDEQVDELAEMFDKPVLAIPGNCDQKTILEALENSKAVNLHGKAEQIGKIRFIGLGGSNPTPFNTPFELSEEEIENALEGMVCSAENSGECGTIVLLTHAPPLGARDELPFGHVGSKAIQKFLDRVDLIVCGHIHEAKGSEKVGKTVVVNPGEACKGSCALIEIEETGNKPIEVEFVEVLEHHHHHH | not soluble
MKILALDTSALVAAVAVMEDDRLLAEYMLNHRKTHSQQLVAMIREVLASLELAPKDIDVFAASTGPGSFTGLRIGVTTVKAMAYATGKPVVSVPTLDAIAYNIPMNSFTICPVMDARNNQVYTALYDWDENGQKRITDYMGIPVSELVQLIKDMGKKVIFAGDAAKMHEEYFTQELGDDCKIAPGNLLLQRASSVARLAYLKAMNNELESCFDMVPFYLRKSQAEREYEKKLCKDC | not soluble
MKILNRLATDVGLMLRRPPRQQYAALCYRLSKSNPEPEVLLLTSRDTGRWVIPKGWPMANKKAHAVAEQEAYEEAGVKGTVEKAPFGYYEYEKKLNSGINVPCKVQVHLLEVSEMRDSFPEKDARRLEWVSPREAGKRVNEPELKALMLAFDKRMAHSQ | not soluble
MKILVTSGGTSEAIDSVRSITNHSTGHLGKIITETLLSAGYEVCLITTKRALKPEPHPNLSIREITNTKDLLIEMQERVQDYQVLIHSMAVSDYTPVYMTGLEEVQASSNLKEFLSKQNHQAKISSTDEVQVLFLKKTPKIISLVKEWNPTIHLIGFKLLVDVTEDHLVDIARKSLIKNQADLIIANDLTQISADQHRAIFVEKNQLQTVQTKEEIAELLLEKIQAYHSLEHHHHHH | soluble
MKISLGPLLYCWEKQQVIDFYQQVANSQIPLVYLGEAVCSRRRELKWGDYLELAKMLKSAGKDVVLSTLALIEAPSEYTELKRQVDNGEFMIEANDMAAVYLAKEHKQPFVCGASINNYNRASLDILQRLGMQRFVMPVELSKTWLSQVVDKKPSFEVEVLGHGYLPLAHSARCFTARHSQLAKDSCETVCRQYSKGLLAQTQEAQPLLRLNGIQTQSASCVDLRSEISAMVKIGVDVFRVSPSSLACIAKADALVEALNSGAMDAQYPLSDEHCNGYWFGEAGLKSLS | soluble
MKITAVETLYCNAGWRNLSFLKISTDEGLVGWAEFPENHINNVLSPLVRHMGQQILGEDPRRIHPVIDRLRRAAWGVPFGAVSRAIGAIENALVDIKAKAIGVPAYELIGGRMRDDIRMYWSHCGSYHVTNWKDLGVPRITSLDDVKSLGRQVRESGYHALKTNLMMFDRPEPYMYRPGFAGGSGDPDRNPLRSAISAAVDQMTAFREGAGPDIGLKLDVNFNFRPEGYIRLAHALEPVDLDWLEIDNFDAKAVAQVRRASRIPIASCETLSGRRQLRPYLEEQAVDVVIIDVPWNGIYEAMRMAALADSFEVNVATHNFCGPIATLISAHFCAAVPNFRVMEMDVVQVPWTNDLITNPPTIERGYMRLPDGPGWGADVNEEALRAHPPVAAKH | not soluble
MKITPLDIQQQQFKGKMLGGIDPEDVDSFLQLVAQEMEGLIRENTDLREQCRKAAADAEQTARQERELREAMLAAQKITEEMKANAQKEASLIVSEAEVKAEKILVDAERRLGQLNEQLQDLRRQKLQFESAFKALLDTHYKMISLEDA | not soluble
MKITVIVPTYRRTKDLTRCLESLEKQSRPADEVLVVVRDTDVETWQFLETIAPHSLPLHTTTVRVPGVVAAMNAGLDIAQGDIIAFTDDDAAPHSNWLAQIETHFLAHEQIAGVGGRDWVYHGDRLEDGTCPVVGQVHWFGRVIGNHHIGIGKPREVDVLKGVNMSFRRSAVHGLRFDQRMLGTGAQVHFEVAFCLALKRAGWKLIYDPQIGVNHYPAQRFLEHHHHHH | not soluble
MKIVIAPDSYKESLSALEVATAIEQGFREIWPDADYLKLPLADGGEGTVEAMVEATAGRIVHVEVTGPLGHRVNAFYGLSGDARSAFIEMAAASGLEQVPPAQRDPLKTTSWGTGELIRHALDAGVEHIIIGIGGSATNDGGAGMVQALGARLRDAQGNDIAQGGIGLETLASIDISGLDKRLSACHIEVACDVTNPLTGKEGASAVFGPQKGATPEMIERLDTALTRYAHLIARDLHVDVLDLAGGGAAGGMGAALYAFCGAQLRRGIEIVTDALHLEACLADADLVITGEGRIDSQTIHGKVPIGVANIAKRYNKPVIGIAGSLTADVSVVHEHGLDAVFSVIYTICTLEDALKNASENVRMTARNVAATLKAGQQLR | not soluble
MKIVIGTKIKEQRQQHEWSQQTVAERLHVSRQTISKWELGKSYPDLELLVALSKLFSVSTDELLGLSRRPVQRPWWQLLLRKRSRTDMTVKWYSGGQDRARVAVGIISDLVANLNTTNEQPLRQLLATYYQELLEQRTGSVLGVFDRMNLDISKCLRQQQIKLSPENEQLMQQLVGLNMIYYR | not soluble
MKKEHSPKNKVRHFASVEHLNPEAVAAFVDNELSPAAAHRAKIHLVHCAECREEIHRQRRAADRLRDGNNSDMRPSSDLIAKLQSIAACCPDGPTAEEVPSSPQSLLDKLDGVARNIYKTTKTLREARNEALRQYDR | not soluble
MKKGLTFSITSAALFFGMNHVASADQIHTVKEDAKLTDIAQTFATTTTEIQNLNHLQNRDYVQVGETIVLPDSDIVEVKDGDTIKAIAERHQMTMNQLYQLNPNLGEVIYPGQLVAVSEKGSAHLNNQLQQIFNSHEAVQPTAQINDDERNKAENNTIRNVRTSGNITPSATQTWQNNDYSASDRQQVSNTTANEQVTSNYQYSPVSHASNGSNYYDWGQCTYYAFDRRQQLGKSVGNLWGNANNWASAAQQSGYQVNNTPEVGAIFQSTAGNYGHVGVVESKNADGSIVVSEMNWQGVGQKSYRTIHNTGQYNYIHLEHHHHHH | not soluble
MKKHIIIKTIPKKEEIISRDLCDCIYYYDNSVICKPIGPSKVYVSTSLENLEKCLQLHYFKKLVKNIEIFDEVHNSKPNCDKCLIVEIGGVYFVRRVNGVPR | soluble
MKKILLSAAVLLLSLGTYAQNNPTSLPTDIRIKKVVYRENDVIPVHGIPFTTTQIQFAKQERVLDIEGGDTTAWMVTYHPQLENMIFIKPTMFDSKTNMTVITNQRAYYFSLTSAKKLEQEPGKKTYALKFEYPQPQPVNTKNTTPNKTVHPKVVNTAYRFSGSPQLVPRHVFDDGKFTYFELSAQGSVPAIFAVDDQSGKESTVNTRREGKFIVVQRLAPQFTLRQGGLTASVFNTPEINRIRANRRPK | not soluble
MKKKDRYTISELAREFEISTRTIRYYEEIGLLNPERTPGNQRIFSRKDRAKLKLILRGRRLGFSLEEIREMIEMYDVAGEPEQIRLTLKYGEKKLKEIEEKIRELELLKEDLLNLREMLVKRLEELEKGS | not soluble
MKKQKKARLIYNPTSGQEIMKKNVAEVLDILEGFGYETSAFQTTPTKNSARDEATRAAQAGFDLIVAAGGDGTINEVVNGIAPLKRRPKMAIIPTGTTNDFARALKIPRGNPIEATKLIGKNQIVKMDIGQAQEDNYFINIAAAGSLTELTYSVPSQLKTTFGYLAYLAKGVELLPRVRKVPVKITHDKGEFIGDASMIFVAITNSVGGFEQIAPDAKLDDGKFTLILVKTANLIEIMHLIRLVLAGGKHINDKRVEYIKTSYLTIEPLSDERMMINLDGEYGGDAPITLANLKNHIRFFANTDEISDDALVLDKDELAIEAIAQKFANEVDDLEGLGD | soluble
MKKRAACLCFRSEREDEVLLVSSSRYPDRWIVPGGGMEPEEEPGGAAVREVYEEAGVKGKLGRLLGVFEQNQDPEHRTYVYVLTVTELLEDWEDSVSIGRKREWFKVEDAIKVLQCHKPVHAEYLEKLKAHHHHHH | soluble
MKKRALVSVSDKTGVVEFVKGLLEQGIEVISTGGTKKLLEENGLQVIGISEVTGFPEIMDGRVKTLHPNIHGGLLAVRDNETHVAQMNELGMEPIDFVVVNLYPFKETIAKPDVTFADAIENIDIGGPTMIRSAAKNHKFVSVIVDPVDYDVVLAELKENGEVAEETKRKLAAKVFRHTAAYDALISNYLTEQMGEESPETLTVTFEKKQDLRYGENPHQKATFYKAPFAATSSVAYAEQLHGKELSYNNINDADAALSIVKEFTEPAVVAVKHMNPCGVGVGTDIHEAYTRAYEADPVSIFGGIIAANREIDKATAEKLHEIFLEIIIAPSFSKEALEVLQSKKNLRLLTVNIEKATSASKKLTSVQGGLLVQEEDTLSLDESTISIPTKREPSEQEWKDLKLAWKVVKHVKSNAIVLAKDDMTIGVGAGQMNRVGSAKIAITQAGEKAQGSALASDAFFPMPDTVEEAAKAGITAIIQPGGSIRDEDSIKVADTYGIAMVFTGVRHFKH | not soluble
MKKREVIASVKDEKLVKKRRNEMIKGAISLFKQKGFHQTTTREIAKASGFSIGTLYEYIRKKEDVLYLVCDRIYDEVRERTEQDLGAHHGTIEGLRRAIAHYFRVVDELDDEVLVMYQEVKALSKESLPYVLNKELDMAAIFEHILRACVENGALQLSESEIRLFAHNIVVLGQMWAFRRWVLRKMYTLDEYIELQTEFLLKGIMEKQRV | not soluble
